Reference: the supplement of paper PMC9732359
± gives the uncertainty stated by the source.

Experiment: protein stability index of a GFP-peptide fusion (yeast GPS) (PSI 1-4); higher = more stable; sorted into four equal gates, so the index is relative within each strain
Method in brief: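 Plasmids isolated from each sorting gate were PCR-amplified and Illumina-sequenced, and barcodes assigned the reads to strains. The gates, four of equal size, were set by GFP/Cherry fluorescence ratio on mid-log cultures in leucine-free medium. These cultures were yeast carrying a pooled library of tiled 17-residue yeast protein peptides fused downstream of GFP on a plasmid that also expresses Cherry. The protein stability index is the sum of every gate's read frequency times its gate number.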

Sequence | protein stability index (doa10∆) | protein stability index (pdr5∆) | protein stability index (san1∆) | protein stability index (ubr1∆)
EKLKQFSWISVVNDLVG [SIR3] | 1.61 ± 0.052 | 1.99 ± 0.058 | 1.53 ± 0.08 | 1.55 ± 0.034
EKLNKTDENTPSADGAD [ITC1] | 3.35 ± 0.098 | 3.29 ± 0.061 | 3.01 ± 0.054 | 3.05 ± 0.05
EKLTLVTLSEIYNELSY [CSN9] | 1.48 ± 0.047 | 1.66 ± 0.036 | 1.57 ± 0.073 | 1.49 ± 0.046
EKNGGLGWDLDAIIPFA [FAS2] | 3.14 ± 0.098 | 3.22 ± 0.13 | 3.28 ± 0.066 | 3.08 ± 0.068
EKNYDRKEPPATVEECV [PRE6] | 3.3 ± 0.14 | 3.29 ± 0.12 | 3.11 ± 0.079 | 3.3 ± 0.072
EKQIEELLDNCIETFVA [SRB6] | 2.62 ± 0.13 |  | 3.19 ± 0.16 | 3.32 ± 0.12
EKSPDPTIRSNAVLGLG [YCS4] | 2.38 ± 0.052 | 2.26 ± 0.054 | 2.3 ± 0.074 | 2.53 ± 0.043
EKVRDYENSISKDLRSV [IRR1] | 2.25 ± 0.093 | 1.98 ± 0.094 | 1.82 ± 0.082 | 2.03 ± 0.051
ELAKEAKKSTTISKEST [ESC2] | 2.55 ± 0.13 | 2.47 ± 0.14 | 2.63 ± 0.21 | 2.85 ± 0.063
ELDQFWQEYSSVFKGGM [SRP14] | 2.68 ± 0.073 | 2.66 ± 0.079 | 2.86 ± 0.098 | 3.13 ± 0.081
ELEGSFNKSAELSRIEN [YCS4] | 2.58 ± 0.13 | 3.22 ± 0.23 | 3.12 ± 0.087 | 3.11 ± 0.12
ELEMIGGTNEDDFTDAI [YCS4] |  | 3.2 ± 0.18 | 3.39 ± 0.069 | 3.7 ± 0.19
ELEQLSSEALEAARICA [RPL10] | 1.21 ± 0.071 | 1.35 ± 0.059 | 1.33 ± 0.14 | 1.12 ± 0.06
ELESMLEDLKNTKEIAV [RRP6] | 2.18 ± 0.08 | 2.27 ± 0.051 | 2.33 ± 0.063 | 2.61 ± 0.044
ELFKDYKPGSITLENIT [MED1] | 2.53 ± 0.067 | 2.36 ± 0.053 | 1.96 ± 0.062 | 2.11 ± 0.042
ELGTAVGKLFRVGVVSI [RPL30] | 1.31 ± 0.13 | 1.17 ± 0.1 | 1.27 ± 0.23 | 1.29 ± 0.095
ELIIDPLFKKALVDFDE [BRN1] | 3.45 ± 0.16 | 2.98 ± 0.14 | 3.01 ± 0.24 | 3.29 ± 0.13
ELKTRDATNTSYKMIQL [SWP82] | 3.39 ± 0.1 | 3.5 ± 0.078 | 3.16 ± 0.059 | 3.29 ± 0.047
ELLANKCPLLVEVDITL [GRR1] | 1.44 ± 0.06 | 1.58 ± 0.047 | 1.59 ± 0.082 | 1.47 ± 0.041
ELLNADHQHILRKLKKM [RPC53] | 1.13 ± 0.059 | 1.24 ± 0.063 | 1.11 ± 0.15 | 1.28 ± 0.046
ELLSSLEGKGSLEEIIA [RPP2B] | 2.27 ± 0.08 | 2.24 ± 0.061 | 2.63 ± 0.052 | 1.92 ± 0.064
ELNVEKLNTFNLQTFTH [SRP72] | 2.48 ± 0.2 | 2.33 ± 0.15 | 1.9 ± 0.13 | 2.42 ± 0.15
ELSDNEENFEATRTLVA [YCG1] | 3.13 ± 0.12 | 3.09 ± 0.096 | 2.89 ± 0.14 | 3.04 ± 0.081
ELSDSWRAHDSSIVAID [YGL100W/SEH1] | 2.9 ± 0.084 | 2.72 ± 0.11 | 3.24 ± 0.054 | 2.8 ± 0.08
ELTKNPNSNVELAGGNA [SMC1] |  | 3.01 ± 0.15 | 3.32 ± 0.086 | 3.37 ± 0.12
ELVDMAGAGEANGTVVS [MTR3] | 2.98 ± 0.12 | 3.11 ± 0.14 |  | 3.05 ± 0.087

Sequence | protein stability index (doa10∆) | protein stability index (pdr5∆) | protein stability index (san1∆) | protein stability index (ubr1∆)
ELVKAHLGERAASVIGM [RPC82] | 2.55 ± 0.29 | 2.77 ± 0.28 | 2.57 ± 0.22 | 2.52 ± 0.086
EMDEKSYEKNEDHVEDH [LIN1] | 3.3 ± 0.11 | 3.35 ± 0.089 | 3.49 ± 0.086 | 3.14 ± 0.052
EMINEQKLPQYIIQGSN [RGR1] |  | 2.96 ± 0.27 |  | 3.15 ± 0.2
EMIRGRSPEEIRRTFNI [SKP1] |  |  |  | 2.34 ± 0.28
EMKIGSIESKLEEHKNH [SMC1] | 3.03 ± 0.15 | 3.22 ± 0.16 | 2.96 ± 0.18 | 3.01 ± 0.099
ENELFNDRKQTTVSNDL [SSN2] | 2.74 ± 0.16 | 3.14 ± 0.079 | 3.11 ± 0.06 | 3.02 ± 0.081
ENEVSDIDVTIVSKEYE [ESC2] | 3.08 ± 0.13 | 2.19 ± 0.098 | 3.09 ± 0.081 | 1.96 ± 0.066
ENHNGQSISNENDVKPI [SWI3] | 2.07 ± 0.054 | 1.83 ± 0.051 | 2.48 ± 0.069 | 2.48 ± 0.045
ENHNKGKLWKDVKARIA [QCR9] | 2.77 ± 0.14 | 3.07 ± 0.19 | 3 ± 0.13 | 2.83 ± 0.12
ENIIQMEMIENRTMDGK [FAS1] | 2.78 ± 0.084 | 2.81 ± 0.11 | 2.81 ± 0.12 | 3.02 ± 0.069
ENLPGLSISVAAEPMDS [SNU114] | 2.7 ± 0.062 | 2.91 ± 0.079 | 2.83 ± 0.074 | 3.17 ± 0.095
ENPDLSTKKKILGIHTS [RPT2] | 2.8 ± 0.14 | 3.02 ± 0.24 | 2.98 ± 0.087 | 2.9 ± 0.15
ENPTPEKGNAKMIDFAT [SIR3] | 3.1 ± 0.11 | 2.99 ± 0.092 | 3.32 ± 0.072 | 3.03 ± 0.068
ENSAVAAKEGLALSSNI [COR1] | 1.84 ± 0.065 | 2.66 ± 0.064 | 2.49 ± 0.084 | 2.17 ± 0.053
EPENNTVIEGVKEESQP [SWI3] | 3.21 ± 0.095 | 3.13 ± 0.092 | 3.08 ± 0.059 | 2.99 ± 0.081
EPHAVSLAWSADGQTLF [ASC1] | 2.85 ± 0.12 | 3.06 ± 0.14 |  | 2.79 ± 0.26
EQFYTKDIIDPKLTSIF [RPN2] | 2.32 ± 0.11 | 2.92 ± 0.11 | 2.36 ± 0.11 | 2.47 ± 0.09
EQHHINNLKNSGNSANN [GAL11] | 2.41 ± 0.14 | 2.09 ± 0.088 | 2.39 ± 0.1 | 2.32 ± 0.13
EQKKTATEVTPQEPKHI [RPC19] | 2.45 ± 0.054 | 3.02 ± 0.054 | 2.6 ± 0.072 | 2.54 ± 0.04
EQKLIDQHVINILWAIY [YCS4] | 1.87 ± 0.042 | 2.28 ± 0.04 | 1.93 ± 0.053 | 1.68 ± 0.035
EQLSEEDAKLKTDLELL [RPN1] | 3.13 ± 0.15 | 3.25 ± 0.069 | 3.25 ± 0.1 | 3 ± 0.13
EQTCVKLLDSGCENPAD [SRP72] | 3.26 ± 0.066 | 3.4 ± 0.085 | 2.91 ± 0.092 | 3.46 ± 0.073
EQVLSAAATFPIAQPAT [RPL13A] | 2.66 ± 0.059 | 2.24 ± 0.057 | 1.74 ± 0.084 | 2.54 ± 0.043
ERLMSRPFGVALLIAGH [PUP2] | 2.81 ± 0.28 | 3.08 ± 0.11 | 2.74 ± 0.1 | 2.95 ± 0.081
ERPPYILNSYGVLKPDI [SIR2] | 2.83 ± 0.078 | 3.12 ± 0.093 | 3.15 ± 0.053 | 3.15 ± 0.061
ESGIKPYFEQKIQETEL [RPT6] | 2.93 ± 0.13 | 3.24 ± 0.14 | 2.64 ± 0.061 | 3.23 ± 0.094
